Measurements from publication PMC9869178.

Molecular target: recombinant RIIα subunit of PKA, fluorescein 5-maleimide-labelled (UniProt P13861)
Assay: other fluorescence titration

Sequence of recombinant RIIα subunit of PKA, fluorescein 5-maleimide-labelled (P13861 2-404): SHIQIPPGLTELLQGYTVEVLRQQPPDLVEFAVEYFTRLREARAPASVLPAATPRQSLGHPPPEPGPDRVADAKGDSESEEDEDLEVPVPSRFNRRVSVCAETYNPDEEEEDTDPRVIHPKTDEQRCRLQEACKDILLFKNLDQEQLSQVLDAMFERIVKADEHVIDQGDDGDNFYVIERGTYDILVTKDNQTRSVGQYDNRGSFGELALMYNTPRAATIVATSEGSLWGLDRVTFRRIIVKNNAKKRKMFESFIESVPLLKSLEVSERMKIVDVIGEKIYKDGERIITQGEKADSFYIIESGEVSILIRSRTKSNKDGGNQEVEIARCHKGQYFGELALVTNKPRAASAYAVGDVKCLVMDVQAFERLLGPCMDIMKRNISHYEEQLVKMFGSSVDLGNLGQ

- Kd: 7.5 µM
Substance: PI3Kγ mimetic peptide (PI3Kγ MP) (from UniProt P48736 126-150)
